Laboratory results as given in paper doi:10.1101/2021.01.26.428356, “Sequence signatures of two IGHV3-53/3-66 public clonotypes to SARS-CoV-2 receptor binding domain” (bioRxiv, 2021).

Target: T1, Fc-tagged receptor-binding domain (RBD) of the SARS-CoV-2 spike (S) protein (SARS-CoV-2, Wuhan-Hu-1 (GenBank …, UniProt P0DTC2))
T1 construct: also called SARS-CoV-2 RBD; SARS-CoV-2 S RBD-Fc; not shown: Fc, C-terminal, kept
Experiment: BLI; Octet Red96e; Fc-tagged RBD loaded onto the biosensor (streptavidin biosensors as printed), Fab in solution; 1x PBS pH 7.4, 0.01% w/v BSA, 0.002% v/v Tween 20; 60 s association, 60 s dissociation; 1:1 binding model
Details: both partners purified

B1: COVA2-20 Fab, F58 variant (heavy chain Y58F) (Fab, V domains shown)
VH: EVQLVESGGGLIQPGGSLRLSCAASGFTVSSNYMSWVRQAPGKGLEWVSVIYSGGSTFYADSVKGRFTISRDNSKNTLYLQMNSLRAEDTAVYYCASPLLLTPPDYYYYMDVWGKGTMVTVSS
VL: DVVMTQSPSSLSVSVGDRVTITCRASQGIRNDLGWYQQKPGKAPKRLIYAASSLQSGVPSRFSGSGSGTEFTLTISSLQPEDFATYYCLQHNSYLWTFGQGTKLEIK
notes: also called COVA2-20 F58
B1: binds.

B2: CC12.3 Fab, Y58 variant (heavy chain F58Y) (Fab, V domains shown)
VH: QVQLVESGGGLIQPGGSLRLSCAASGFTVSSNYMSWVRQAPGKGLEWVSVIYSGGSTYYADSVKGRFTISRDNSKSTLYLQMNSLRVEDTAVYYCARDFGDFYFDYWGQGTLVTVSS
VL: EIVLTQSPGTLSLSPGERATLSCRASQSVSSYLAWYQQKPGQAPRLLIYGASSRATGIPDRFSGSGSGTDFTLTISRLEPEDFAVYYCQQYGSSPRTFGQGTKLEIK
notes: also called CC12.3 Y58
B2: binds.
